Laboratory results: patent US20160169910A1

Columns and labels:
protein G-agarose beads = protein G-agarose beads (UniProt P06654); experiment: mock depletion of FSGS plasma with protein G-agarose beads only, R&D ELISA
[1] = target: suPAR in human plasma from FSGS patients (human) (UniProt Q03405); experiment: immunodepletion of FSGS plasma, remaining suPAR measured by R&D ELISA
Sequence of suPAR in human plasma from FSGS patients (human) (Q03405 23-305 limits assumed): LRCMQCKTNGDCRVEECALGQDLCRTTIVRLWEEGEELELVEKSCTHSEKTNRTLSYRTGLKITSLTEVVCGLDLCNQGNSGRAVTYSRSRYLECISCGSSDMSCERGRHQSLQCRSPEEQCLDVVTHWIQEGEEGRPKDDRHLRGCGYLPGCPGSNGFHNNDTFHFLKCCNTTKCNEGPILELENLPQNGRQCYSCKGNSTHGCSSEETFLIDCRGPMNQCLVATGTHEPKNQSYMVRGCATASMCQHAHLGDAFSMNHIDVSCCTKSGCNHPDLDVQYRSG

Sequence of suPAR in human plasma from FSGS patients (Q03405 23-305 limits assumed): as above

percent lowering of suPAR level in plasma (protein G-agarose beads) [%]	percent of suPAR removed from human plasma [1] [%]	Substance
20 to 50		suPAR in human plasma from FSGS patients (from UniProt Q03405 23-305) (receptor)
	> 99	mouse monoclonal anti-suPAR antibody ATN615
